One substance from article PMC2966416 can be followed below.

The target in assay [1] is NCenH3^CenpA-lacI (human).
Assay [2] addresses NCenH3^Cse4-lacI (Saccharomyces cerevisiae).

As to BubR1 (natural protein), the silencing of the white-reporter (eye pigmentation) in S9.2 flies on tethering of the lacI fusion: share of lines with significant silencing in assay [1] was 50 % of lines. Moreover, the silencing of the white-reporter (eye pigmentation) in S9.2 flies on tethering of the lacI fusion: share of lines with strong silencing in assay [2] was 75 % of lines.
